Experiment [1] deals with T1, recombinant human scMet antigen, cMet (25-932)-HIEGRMD-6His (human, UniProt P08581 25-932).
T1 construct: this entry is used for those rows too; also called soluble cMet; scMet B Sample
Put plainly: … scMet B sandwich immunoassay, 224D10 F(ab')2 as acridinium conjugate.

The target of experiment [2] is T2, free cMet (SEQ ID NO: 33) bound to Alexa-488 dye (human, UniProt P08581 25-932, Alexa-488 dye (site not stated)).
T2 construct: also called cMet-A488
As to the kind of experiment: FRET binding titration in solution.

Experiment [3] addresses T1, recombinant human scMet antigen, cMet …. Put plainly: … chemiluminescent microparticle sandwich immunoassay on recombinant scMet.

T1 sequence (P08581 other isoform, or with tags, fused parts or gaps limits assumed): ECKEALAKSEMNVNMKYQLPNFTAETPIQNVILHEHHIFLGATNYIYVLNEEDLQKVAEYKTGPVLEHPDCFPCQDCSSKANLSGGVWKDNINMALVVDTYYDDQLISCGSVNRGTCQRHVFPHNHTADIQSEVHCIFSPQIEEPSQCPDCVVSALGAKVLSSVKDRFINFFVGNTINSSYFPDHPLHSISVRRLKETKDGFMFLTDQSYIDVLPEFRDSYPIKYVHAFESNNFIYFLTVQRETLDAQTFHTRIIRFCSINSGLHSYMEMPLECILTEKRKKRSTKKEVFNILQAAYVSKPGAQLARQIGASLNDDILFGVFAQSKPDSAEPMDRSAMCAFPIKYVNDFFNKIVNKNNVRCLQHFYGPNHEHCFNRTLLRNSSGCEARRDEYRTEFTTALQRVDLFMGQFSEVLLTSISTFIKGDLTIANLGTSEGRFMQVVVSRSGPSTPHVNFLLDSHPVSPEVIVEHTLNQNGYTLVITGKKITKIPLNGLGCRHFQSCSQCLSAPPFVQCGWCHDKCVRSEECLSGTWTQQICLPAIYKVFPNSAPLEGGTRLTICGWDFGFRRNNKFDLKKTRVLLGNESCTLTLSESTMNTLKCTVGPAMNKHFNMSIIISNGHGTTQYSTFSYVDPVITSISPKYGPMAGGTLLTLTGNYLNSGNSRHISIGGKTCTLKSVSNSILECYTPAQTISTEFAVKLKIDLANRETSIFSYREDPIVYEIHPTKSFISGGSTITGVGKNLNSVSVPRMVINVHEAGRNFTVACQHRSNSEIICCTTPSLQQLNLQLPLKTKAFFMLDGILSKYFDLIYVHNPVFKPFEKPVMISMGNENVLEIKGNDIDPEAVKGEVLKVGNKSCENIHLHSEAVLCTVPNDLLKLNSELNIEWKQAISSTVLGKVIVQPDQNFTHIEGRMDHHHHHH
T2 sequence (P08581 other isoform, or with tags, fused parts or gaps limits assumed): as above

B1: anti-cMet 224D10 F(ab')2 fragment antibody (antibody, V domains shown)
VH: DLQLQESGPGLVKPSQSLSLTCSVTGYSITSAYFWSWIRQFPGNKLEWMGFINYDGTNNYNPSLKNRISITRDTSKNQFFLRLNSVTTDDTATYYCTRDRTFAYWGQGTLVTVSA
VL: DIVLTQSPATLSVTPGDRVSLSCRASQRIYNYLHWYQQKSHESPRLLIKYASQSISGIPSRFSGSGSGTDFILTINSVETEDFGMYFCQQSNSWPLTFGAGTKLELRR
modifications: acridinium conjugate (site not stated)
notes: also called 224D10 F(ab') 2 fragment conjugate
Turning to B1, in experiment [1], the binding result was “binds”.

B2: anti-cMet 11E1 monoclonal antibody (hybridoma CNCM I-3724) (antibody, V domains shown)
VH: QVQLQQSGAELAKPGASVKMSCKASGYTFTSYWMNWVKQRPGQGLEWIGYINPTTGSTDYNQKLKDKATLTADKSSNTAYMQLSSLTSEDSAVYYCAIGGYGSWFAYWGQGTLVTVSA
VL: QIVLTQSPAIMSASPGEKVTLTCSASSSVSSTYLYWYQQKPGSSPKLWIYTTSILASGVPARFSGSGSGTSYSLTISSMETEDAASYFCHQWSSYPFTFGSGTKLDIK
notes: summary and claims call them variable heavy and variable light domains; Hybridoma monoclonal, coated on magnetic microparticles (capture) or labelled with acridinium (conjugate); also called m11E1; mAb 11E1
With B2, the binding result in experiment [2] and in experiment [3] was “binds” throughout.
